# Target: Dectin-2 on murine bone marrow-derived dendritic cells (mouse) (UniProt Q9JKF4)
# Assay: cell-based or functional assay
# Sequence of UniProt Q9JKF4 (Q9JKF4 whole entry): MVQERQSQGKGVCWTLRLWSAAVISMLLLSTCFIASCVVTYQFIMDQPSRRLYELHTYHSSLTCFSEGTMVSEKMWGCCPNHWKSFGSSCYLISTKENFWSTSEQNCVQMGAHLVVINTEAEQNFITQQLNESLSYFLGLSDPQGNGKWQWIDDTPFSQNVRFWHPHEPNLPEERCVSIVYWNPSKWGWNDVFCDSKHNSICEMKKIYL
substance,measurement,value
"recombinant Bl-Eng2 (Blastomyces dermatitidis Eng2 expressed in Pichia pastoris, C-terminal Myc-6xHis tag) (ligand)","Ligand induced IL-6 production by murine BMDC, against Furfurman, Man-Lam and MP98",> 100 fold

# Source: patent publication US20210205445A1
